Measurements: patent publication US20210221876A1

Columns and labels:
[1] = molecular target: h12H4 heavy chain Y52aF mutant; assay: competitive ELISA; row Y52aF (heavy chain CDR2 mutant of h12H4); reference wt h12H4
[2] = molecular target: h12H4 light chain P95Gz mutant; assay: competitive ELISA; row P95Gz (light chain CDR3 mutant of h12H4); reference wt h12H4
[3] = molecular target: h12H4 heavy chain P52bG mutant; assay: competitive ELISA; row P52bG (heavy chain CDR2 mutant of h12H4); reference wt h12H4
h12H4 heavy chain P52bG mutant, sequence (VH, as listed by the source limits assumed, chain 1 of 2): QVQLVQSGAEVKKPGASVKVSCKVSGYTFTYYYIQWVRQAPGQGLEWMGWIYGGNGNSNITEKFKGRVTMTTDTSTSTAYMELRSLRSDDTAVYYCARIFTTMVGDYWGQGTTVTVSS
h12H4 heavy chain P52bG mutant, sequence (VL, as listed by the source limits assumed, chain 2 of 2): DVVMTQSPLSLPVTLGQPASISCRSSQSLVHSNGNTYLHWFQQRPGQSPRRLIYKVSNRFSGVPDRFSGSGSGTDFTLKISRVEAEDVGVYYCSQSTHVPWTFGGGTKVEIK

h12H4 light chain P95Gz mutant, sequence (VH, as listed by the source, chain 1 of 2): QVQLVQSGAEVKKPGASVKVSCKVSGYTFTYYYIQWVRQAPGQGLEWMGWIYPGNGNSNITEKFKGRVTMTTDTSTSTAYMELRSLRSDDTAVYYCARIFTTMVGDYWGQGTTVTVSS
h12H4 light chain P95Gz mutant, sequence (VL, as listed by the source, chain 2 of 2): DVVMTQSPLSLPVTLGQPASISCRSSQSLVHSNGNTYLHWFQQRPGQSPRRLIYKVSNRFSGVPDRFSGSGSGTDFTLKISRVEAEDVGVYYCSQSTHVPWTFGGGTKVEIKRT
h12H4 heavy chain Y52aF mutant, sequence (VH, as listed by the source limits assumed, chain 1 of 2): as the sequence (VH, as listed by the source, chain 1 of 2) above, with Y52F counted along it
h12H4 heavy chain Y52aF mutant, sequence (VL, as listed by the source limits assumed, chain 2 of 2): as the sequence (VL, as listed by the source limits assumed, chain 2 of 2) above

IC50 ratio (mutant/wt) (ratio (mutant/wt)) [1]: 1.4
IC50 ratio (mutant/wt) (ratio (mutant/wt)) [2]: 1.5
IC50 ratio (mutant/wt) (ratio (mutant/wt)) [3]: 1
Binder: SVNVDKQPKYEYSL [peptide … (hCE3C peptide, without the N-terminal Cys)]
